Measurements published in paper PMC5992430, “C-Reactive Protein (CRP) and Leptin Receptor in Obesity: Binding of Monomeric CRP to Leptin Receptor” (Frontiers in Immunology, 2018).

Target: T1, Soluble recombinant human leptin receptor (human, UniProt P48357 22-839)
T1 construct: leptin receptor (Ob R), human, soluble recombinant form; PDB 3V6O (CRH2 domain) was used only for docking; also called recombinant leptin receptor; Ob R; source: bought: Thermo Fischer, USA (synthesized in Escherichia coli)
T1 sequence (looked up): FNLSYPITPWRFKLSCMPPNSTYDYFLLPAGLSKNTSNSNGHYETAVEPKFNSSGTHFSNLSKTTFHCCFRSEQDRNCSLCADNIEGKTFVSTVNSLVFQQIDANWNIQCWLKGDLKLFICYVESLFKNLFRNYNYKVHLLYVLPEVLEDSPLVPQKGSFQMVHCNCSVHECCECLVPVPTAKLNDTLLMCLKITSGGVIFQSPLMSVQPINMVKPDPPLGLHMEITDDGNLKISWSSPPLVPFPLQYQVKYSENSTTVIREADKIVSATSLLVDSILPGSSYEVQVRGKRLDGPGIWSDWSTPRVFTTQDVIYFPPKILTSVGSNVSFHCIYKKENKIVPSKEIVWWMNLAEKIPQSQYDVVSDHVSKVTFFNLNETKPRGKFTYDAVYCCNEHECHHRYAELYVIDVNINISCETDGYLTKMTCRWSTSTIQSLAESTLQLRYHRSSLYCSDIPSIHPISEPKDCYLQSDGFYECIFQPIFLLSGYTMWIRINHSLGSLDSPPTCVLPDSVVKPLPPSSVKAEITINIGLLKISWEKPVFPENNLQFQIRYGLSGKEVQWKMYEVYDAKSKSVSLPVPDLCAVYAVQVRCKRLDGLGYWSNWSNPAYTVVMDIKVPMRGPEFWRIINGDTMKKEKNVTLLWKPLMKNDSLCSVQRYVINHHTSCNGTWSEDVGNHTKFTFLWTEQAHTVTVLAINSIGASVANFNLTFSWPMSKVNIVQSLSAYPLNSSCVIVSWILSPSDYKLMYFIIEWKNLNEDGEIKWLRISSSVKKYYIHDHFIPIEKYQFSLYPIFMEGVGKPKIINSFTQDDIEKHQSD
Assay: ELISA; solid phase binding assay; CRP forms or control proteins coated on a 96-well plate at 4°C overnight in Tris/HCl 0.05 M pH 7.4 (different concentrations, or 0.6 µg/ml for Figure 5B); blocked with 0.5% gelatin; leptin receptor 100 ng/ml in 50 µl PBS added for 1 h at RT; detected with anti-Ob R antibody and HRP anti-rabbit IgG
Settings: both partners purified

B1: Monomeric CRP prepared from human serum CRP (natural protein, UniProt P02741 19-224, looked up)
chain: QTDMSRKAFVFPKESDTSYVSLKAPLTKPLKAFTVCLHFYTELSSTRGYSIFSYATKRQDNEILIFWSKDIGYSFTVGGSEILFEVPEVTVAPVHICTSWESASGIVEFWVDGKPRVRKSLKKGYTVGAEASIILGQEQDSFGGNFEGSQSLVGDIGNVNMWDFVLSPDEINTIYLGGPFSPNVLNWRALKYEVQGEVFTKPQLWP
notes: C-reactive protein, human, from serum; protomer of 206 amino acid residues as printed in the introduction; dissociated to the monomer with urea/EDTA; Same chain as native CRP, dissociated to monomers; also called s-mCRP; human mCRP; source: bought: Thermo Fischer, USA (human CRP); made monomeric with 8 M urea/10 mM EDTA at 37°C for 2 h
Kd: 10.2 nM
